Measured values: the supplement of paper PMC9876800

Tested on: peptide library, one residue held at a place counted from the S/T acceptor
Test: relative phosphorylation of the sub-library (ratio to the mean residue at this position); higher = residue favoured
Details: human
Method in brief: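 Relative sub-library phosphorylation is a ratio to the mean residue at the same position. Purified recombinant kinases were incubated under kinase-specific conditions with biotinylated degenerate peptide sub-libraries, each fixing one residue at one position around a central Ser/Thr, using 50 μM peptide and 50 μM ATP spiked with γ-32P-ATP for 90 min. Spots captured on streptavidin membranes were phosphorimaged and quantified by densitometry.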

TAOK2, construct: aa1-350, sequence (Q9UL54 1-350, looked up): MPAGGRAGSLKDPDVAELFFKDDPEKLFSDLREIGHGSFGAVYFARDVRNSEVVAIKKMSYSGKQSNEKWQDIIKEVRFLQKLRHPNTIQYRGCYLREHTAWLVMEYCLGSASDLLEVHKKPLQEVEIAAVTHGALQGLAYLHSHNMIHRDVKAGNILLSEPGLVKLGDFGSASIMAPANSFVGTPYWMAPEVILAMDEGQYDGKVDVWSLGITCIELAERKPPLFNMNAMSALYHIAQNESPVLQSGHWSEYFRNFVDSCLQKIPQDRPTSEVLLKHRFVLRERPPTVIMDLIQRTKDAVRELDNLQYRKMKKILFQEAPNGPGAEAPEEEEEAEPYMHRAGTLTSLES
STK3, construct: Full length, sequence (Q13188 whole entry, looked up): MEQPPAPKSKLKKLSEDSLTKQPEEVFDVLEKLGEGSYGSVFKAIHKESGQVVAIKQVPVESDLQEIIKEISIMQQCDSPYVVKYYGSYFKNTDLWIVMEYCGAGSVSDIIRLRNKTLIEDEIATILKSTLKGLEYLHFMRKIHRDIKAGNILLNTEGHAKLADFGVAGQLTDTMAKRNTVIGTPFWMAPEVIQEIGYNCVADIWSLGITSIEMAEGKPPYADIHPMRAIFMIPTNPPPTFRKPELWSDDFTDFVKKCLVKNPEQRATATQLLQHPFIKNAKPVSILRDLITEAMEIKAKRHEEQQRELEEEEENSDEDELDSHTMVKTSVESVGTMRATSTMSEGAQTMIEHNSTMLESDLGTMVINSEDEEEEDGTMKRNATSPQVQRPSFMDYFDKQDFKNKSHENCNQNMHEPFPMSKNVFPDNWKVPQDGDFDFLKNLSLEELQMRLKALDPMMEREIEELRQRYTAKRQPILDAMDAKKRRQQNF
HIPK3, construct: aa161-562, sequence (Q9H422 161-562, looked up): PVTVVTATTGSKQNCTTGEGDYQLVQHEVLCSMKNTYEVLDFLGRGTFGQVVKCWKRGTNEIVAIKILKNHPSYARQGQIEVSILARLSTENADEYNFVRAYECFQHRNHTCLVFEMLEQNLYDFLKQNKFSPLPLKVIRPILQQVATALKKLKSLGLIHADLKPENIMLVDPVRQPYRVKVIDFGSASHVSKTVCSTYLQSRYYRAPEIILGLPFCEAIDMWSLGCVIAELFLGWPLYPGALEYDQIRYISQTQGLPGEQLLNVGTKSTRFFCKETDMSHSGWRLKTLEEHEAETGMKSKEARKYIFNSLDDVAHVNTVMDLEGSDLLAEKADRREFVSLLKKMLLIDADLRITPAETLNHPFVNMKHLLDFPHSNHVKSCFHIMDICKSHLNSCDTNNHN

HIPK3, construct: aa161-562 (from UniProt Q9H422)
relative phosphorylation
Details	at +1	at +2	at +3	at +4	at -1	at -2	at -3	at -4	at -5
A fixed	0.905	1.05	1.03	0.883	1.43	2.27	1.26	1.07	0.866
D fixed	0.116	0.665	0.422	0.718	0.435	0.171	0.37	0.534	0.617
E fixed	0.135	0.371	0.338	0.569	0.46	0.158	0.375	0.63	0.608
F fixed	0.541	1.27	0.965	1.07	0.843	0.617	0.713	1.33	1.32
G fixed	0.8	1.07	0.954	1.02	1.07	0.734	1.06	0.962	0.863
H fixed	0.422	1.3	0.962	1.05	0.765	0.465	0.687	0.859	1.03
I fixed	0.656	0.842	1.26	1.17	1.07	1.24	0.682	1.05	0.913
K fixed	0.324	1.33	0.598	1.1	1.12	0.745	0.858	1.01	1.1
L fixed	0.553	1.02	1.05	0.844	0.932	0.757	0.586	0.842	1.15
M fixed	0.706	1.34	1.2	1.05	1.17	0.835	0.752	1.09	0.951
N fixed	0.21	0.801	0.714	0.894	0.585	0.528	0.481	0.545	0.771
P fixed	8.32	0.967	2.43	1.1	1.52	2.41	0.72	1.04	1.17
Q fixed	0.273	0.703	0.762	1.01	0.907	0.626	0.679	0.799	0.984
R fixed	1.5	1.52	1.12	1.36	2.1	3.19	6.13	2.47	1.8
V fixed	0.649	0.847	1.22	0.951	0.929	1.2	0.614	0.918	0.812
W fixed	0.535	1	0.97	1.16	0.76	0.568	0.553	0.896	0.789
Y fixed	0.351	0.895	0.998	1.05	0.913	0.492	0.482	0.956	1.25
pThr fixed	0.236	0.362	0.387	0.458	0.427	0.737	0.512	0.745	0.925
pTyr fixed	0.283	0.331	0.529	0.601	0.585	0.296	0.624	0.7	0.939

STK3, construct: Full length (from UniProt Q13188)
relative phosphorylation
Details	at +1	at +2	at +3	at +4	at -1	at -2	at -3	at -4	at -5
A fixed	0.661	0.581	0.858	1.04	0.779	0.875	0.933	0.913	1.03
D fixed	0.346	0.503	0.732	0.903	2.13	1.3	1.5	1.32	1.46
E fixed	0.48	0.55	0.651	0.554	1.02	1.19	1.39	1.42	1.2
F fixed	0.902	0.508	0.855	0.762	0.651	1.64	0.919	1.07	0.976
G fixed	0.728	0.737	1.14	1.45	1.3	0.916	1.15	1.01	0.989
H fixed	0.58	1.48	1.11	1.13	1.13	1.18	0.957	1.07	1.15
I fixed	1.92	0.532	0.872	0.747	0.346	0.457	0.461	0.501	0.601
K fixed	0.419	2.81	1.41	1.26	1.17	0.444	0.517	0.821	0.784
L fixed	2.37	0.687	1.05	0.951	0.917	0.511	0.601	0.598	0.821
M fixed	2.76	0.687	0.886	1.02	0.823	0.877	0.727	0.789	0.817
N fixed	0.589	1.64	1.12	1.09	1.74	1.32	1.21	1.17	1.1
P fixed	0.26	0.733	1.1	1.18	0.706	0.555	1.08	0.926	1.23
Q fixed	0.761	1.28	1.06	1.24	1.26	0.953	1.15	1.32	1.06
R fixed	0.479	2.35	1.45	0.852	0.783	0.472	0.602	0.881	0.704
V fixed	1.09	0.747	0.827	0.871	0.511	0.514	0.64	0.809	0.89
W fixed	1.87	0.549	0.925	1.11	0.819	1.63	1.78	1.12	1.15
Y fixed	0.792	0.626	0.953	0.841	0.909	2.17	1.4	1.26	1.03
pThr fixed	1.04	1.05	0.9	0.916	0.849	1.04	1.18	1.08	1.06
pTyr fixed	0.632	0.544	0.771	0.75	0.599	1.56	1.26	1.2	1.24

TAOK2, construct: aa1-350 (from UniProt Q9UL54)
relative phosphorylation
Details	at +1	at +2	at +3	at +4	at -1	at -2	at -3	at -4	at -5
A fixed	0.607	0.791	0.808	0.75	0.832	0.94	0.901	0.992	1.03
D fixed	0.505	0.606	0.532	0.619	0.726	0.706	0.741	0.931	1.01
E fixed	0.496	0.483	0.501	0.593	0.566	0.621	0.725	0.92	0.888
F fixed	1.23	0.651	0.845	0.887	0.938	1.4	0.806	0.907	0.896
G fixed	0.606	0.697	0.953	0.937	1.45	1.13	1.34	1.14	1.13
H fixed	0.855	0.993	0.924	1.04	1.28	1.01	1.06	1.08	1.06
I fixed	1.47	0.723	0.761	0.763	0.561	0.703	0.642	0.746	0.73
K fixed	0.753	2.65	2	1.72	1.11	0.981	2.14	1.46	1.45
L fixed	1.49	0.644	0.807	0.778	1.1	0.709	0.672	0.781	0.767
M fixed	1.49	0.734	0.735	0.764	1.26	0.978	0.828	0.857	0.827
N fixed	0.64	1.24	0.876	0.845	1.16	0.972	0.944	1.1	1.05
P fixed	0.589	0.76	0.906	0.834	0.667	0.876	0.777	0.965	0.969
Q fixed	0.727	0.884	0.838	0.949	0.851	0.896	1	1.01	0.977
R fixed	0.778	2.81	2.84	2.19	1.27	1.1	1.59	1.28	1.38
V fixed	1.09	0.812	0.753	0.738	0.583	0.731	0.672	0.818	0.889
W fixed	2.32	0.69	1.04	1.35	1.1	1.08	1.02	1	0.986
Y fixed	1.35	0.835	0.873	1.24	1.54	2.16	1.13	1.01	0.96
pThr fixed	0.639	0.557	0.614	0.55	0.605	0.742	0.817	0.964	1
pTyr fixed	0.577	0.54	0.626	0.609	1.27	0.822	0.909	1.03	1.1
